Target: T1, CTCF (UniProt P49711 1-727)
T1 sequence: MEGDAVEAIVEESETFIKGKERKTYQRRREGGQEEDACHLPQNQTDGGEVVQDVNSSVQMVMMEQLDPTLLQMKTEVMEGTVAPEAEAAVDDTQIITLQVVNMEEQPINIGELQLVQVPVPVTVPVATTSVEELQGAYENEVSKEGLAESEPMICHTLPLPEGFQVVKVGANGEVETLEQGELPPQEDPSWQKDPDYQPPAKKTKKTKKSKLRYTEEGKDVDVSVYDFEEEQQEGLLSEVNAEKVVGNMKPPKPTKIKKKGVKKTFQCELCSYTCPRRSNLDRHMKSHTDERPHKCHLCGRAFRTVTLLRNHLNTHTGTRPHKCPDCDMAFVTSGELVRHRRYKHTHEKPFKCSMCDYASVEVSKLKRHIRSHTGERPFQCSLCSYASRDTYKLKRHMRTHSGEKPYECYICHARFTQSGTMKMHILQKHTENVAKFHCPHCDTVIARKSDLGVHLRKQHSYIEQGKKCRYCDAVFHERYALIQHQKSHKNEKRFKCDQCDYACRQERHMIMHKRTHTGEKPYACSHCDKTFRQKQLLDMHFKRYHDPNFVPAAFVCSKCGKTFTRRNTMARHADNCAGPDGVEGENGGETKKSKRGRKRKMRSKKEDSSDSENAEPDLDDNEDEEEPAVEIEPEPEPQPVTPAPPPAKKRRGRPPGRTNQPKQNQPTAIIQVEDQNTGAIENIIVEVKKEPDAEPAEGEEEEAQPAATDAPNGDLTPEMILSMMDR
Assay: MST; sonicated salmon sperm DNA competitor (2000 ng); MST: 125 nM DNA, 0-12.5 uM protein, 1X EMSA buffer (from 4X: 100 mM KCl, 20 mM HEPES pH 8.0, 0.2 mM EDTA, 20% glycerol) with 1 mM DTT (fresh), salmon sperm DNA; 60 min on ice
Conditions: protein: recombinant; tags: His; label: 5' FAM (5-carboxyfluorescein) on forward strand; blunt

B1: Wt S13 49-mer (dsDNA)
DNA 1: TTTGTTAATCTTTAGTGGGAACTAGTGGGAGTGCTGTGCCTCGGGTACC
DNA 2: GGTACCCGAGGCACAGCACTCCCACTAGTTCCCACTAAAGATTAACAAA
B1 was tested, and the Kd was 4.8 ± 2.3 µM.
